In the nanobody polyreactivity screen of Harvey et al. (2022):

Experiment: yeast display, Sf9 membrane polyspecificity reagent, FACS + sequencing; frameworks hold sequencing errors
Method in brief: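 Galactose induction of a Saccharomyces cerevisiae BJ5465 synthetic nanobody display library ran 36–48 hours. The cells were then stained for 1 hour at 4 °C with 10% biotinylated, detergent-solubilized Sf9 membrane reagent, pulled down on streptavidin microbeads and FACS-sorted into low and high (top ~1%) gates on expression and reagent-binding fluorescence. Labels for polyreactivity follow the gate of origin.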

**Q.** Which “polyreactivity (PSR sort gate)” value does the source give for “QVQLVESGGGLVQAGGSLRLSCAASGFIIKFCAMGLYRQAPGKERELVATITFSSGTTYYADSVKGRFTISRDNAKYTVYLQMNSLKPEDTAVYYCAASTLPAWPYDGPAGPRYDYWGQGTQVTVSS” here?
**A.** low polyreactivity

**Q.** For “QVQLVESGGGLVQAGGSLRLSCAASGFIIPGYAMGWYRQAPGKERELVAAISRSGTSTYYADSVKGRFTISRDNAKNTVYLQMNSLKPEDTAVYYCAAKPASLSVRGYDYWGQGTQVTVSS”, which “polyreactivity (PSR sort gate)” value is on record?
**A.** high polyreactivity

**Q.** Which “polyreactivity (PSR sort gate)” value does the source give for “QVQLVESGGGLVQAGGSLRLSCAASGFIIQGNAMGWYRQAPGKERELVAAISSSVSTYYADSVKGRFTISRDNAKNTVYLQMNSLKPEDTAVYYCNAGFPLSLWLGDYWGQGTQVTVSS” here?
**A.** low polyreactivity

**Q.** Which “polyreactivity (PSR sort gate)” value does the source give for “QVQLVESGGGLVQAGGSLRLSCAASGFIISDYAMGWYRQAPGKERELVAVITWRSGSTYYADSVKGRFTISRDNAKNTVYFQMHSLKPVDTAVYYCAARYYRNYSQGRRLGYNYWGQGTQVTVSS” here?
**A.** high polyreactivity

**Q.** For “QVQLVESGGGLVQAGGSLRLSCAASGFIISNNAMGWYRQAPGKERELVAVINGGGSTYYADSVKGRFTISRDTAKNTVYLQMNSLKPEDTAVYYCNADRFADYDYWGQGTQVTVSS”, which “polyreactivity (PSR sort gate)” value is on record?
**A.** low polyreactivity

**Q.** With “QVQLVESGGGLVQAGGSLRLSCAASGFIITGNPMGWYRQAPGKERELVAAITSGGNTYYADSVKGRFTISRDNANNTVYLQMNSLKPEDTAVYYCAKYVPHWRILMEYWGQGTQVTVSS” as the sequence, how does the “polyreactivity (PSR sort gate)” value read?
**A.** low polyreactivity

**Q.** With “QVQLVESGGGLVQAGGSLRLSCAASGFIIVNNAMGWYRQAPGKERELVATISRGGSTNYADSVKGRFTISRDNAKNTVYLQMNSLKPEDTAVYYCNARRSVKVYGVDYWGQGTQVTVSS” as the sequence, how does the “polyreactivity (PSR sort gate)” value read?
**A.** high polyreactivity

**Q.** Which “polyreactivity (PSR sort gate)” value does the source give for “QVQLVESGGGLVQAGGSLRLSCAASGFIIVYYAMGWYRQAPGKERELVAAITSSGGSTYYADSVKGRFTISRDNAKNTVYLQMNSLKPEDTAVYYCNRVWYATDFVNTMGYWGQGTQGTVSS” here?
**A.** low polyreactivity

**Q.** With “QVQLVESGGGLVQAGGSLRLSCAASGFIIYFYAMGWYRQAPGKERELVAAINYPGDSTYYADSVKGRFTISRDNAKNTVYLQMNSLKPEDTAVYYCNKVLYNKWPYVTLSAFPTVGYWGQGTQVTVSS” as the sequence, how does the “polyreactivity (PSR sort gate)” value read?
**A.** high polyreactivity

**Q.** With “QVQLVESGGGLVQAGGSLRLSCAASGFILDTYAMGWYRQAPGKERELVAAISASGSSTYYADSVKGRFTISRDNAKNTVYLQMNSLKPEDTAVYYCAAKDTGYGYGFPRLDYWGQGTQVTVSS” as the sequence, how does the “polyreactivity (PSR sort gate)” value read?
**A.** low polyreactivity

**Q.** Which “polyreactivity (PSR sort gate)” value does the source give for “QVQLVESGGGLVQAGGSLRLSCAASGFILDYNAMGWYRQAPGKERELVATITGRGDRTYYADSVKGRVTISRDNAKNTVYLQMNSLKPEDTAGYYCAAGFDGSRHPGFDSWGQGTQVTVSS” here?
**A.** low polyreactivity

**Q.** Which “polyreactivity (PSR sort gate)” value does the source give for “QVQLVESGGGLVQAGGSLRLSCAASGFILDYYAMGWYRQAPGKERELVAANSYSGGSTYYADSVKGRFTISRDNAKNTVYLQMTSLKAEDTGVYYGNAGVLVLLYAYLPSELEYWGQGTQVTVSS” here?
**A.** low polyreactivity

**Q.** For “QVQLVESGGGLVQAGGSLRLSCAASGFILEPNAMGWYRQAPGKERELVATISFSGGGTYYADSVKGRFTISRDNAKNNVYLQMNSLKPEDTAVYYCAAQGRDSDYVDFDYWGQGTQVTVSS”, which “polyreactivity (PSR sort gate)” value is on record?
**A.** high polyreactivity

**Q.** For “QVQLVESGGGLVQAGGSLRLSCAASGFILGTYAMGWYRQAPGKERELVAAISRSGGSTYYADSVKGRFTISRDNAKNSVYLQMNSLKPEDTAVYYCNTVRVHGFPIDRIYDYWGQGTQVTVSS”, which “polyreactivity (PSR sort gate)” value is on record?
**A.** high polyreactivity

**Q.** With “QVQLVESGGGLVQAGGSLRLSCAASGFILGVYAMGWYRQAPGKERELVAAISKSGDSTYYADSVKGRFTISRDNAKNTVYLLMNSLKPEDTAVYYCNADWSWYNYYDFDYWGQGTQVTVSS” as the sequence, how does the “polyreactivity (PSR sort gate)” value read?
**A.** low polyreactivity

**Q.** Which “polyreactivity (PSR sort gate)” value does the source give for “QVQLVESGGGLVQAGGSLRLSCAASGFILIRNGMGCYRQAPGKERELVAAISRSGRTYYADSVKGRFTISRDNAKNTVYLQMNSLKPEDTAVYYCAKRDYLYGRYDYSGQGTQVTVSS” here?
**A.** high polyreactivity

**Q.** With “QVQLVESGGGLVQAGGSLRLSCAASGFILKYYAMGWYRQAPGKERELVAAISWSGGSTYYADSVKGRFTISRDNAKNTVYLQMNSLKPEVTAVYYCNAYYVYNSLGYWGQGTQVTVSS” as the sequence, how does the “polyreactivity (PSR sort gate)” value read?
**A.** high polyreactivity

**Q.** With “QVQLVESGGGLVQAGGSLRLSCAASGFILLDNAMGRYRQAPVKEREFVASINISGDRTFYADSVKGRFTISRDNAKNTVYLQMNSLKPEDTAVYYCAKEPGLGRRSTTAYDYWGQGTQVTVSS” as the sequence, how does the “polyreactivity (PSR sort gate)” value read?
**A.** low polyreactivity

**Q.** Which “polyreactivity (PSR sort gate)” value does the source give for “QVQLVESGGGLVQAGGSLRLSCAASGFILNKNVMGWYRQAPGKERELVAAITASGSSTYYADSVKGRFTISRDNAKNTVYLQMNSLKPEDTAVYYCAARGYWSSYAPRFNYWVQGTQVTVSS” here?
**A.** high polyreactivity

**Q.** Which “polyreactivity (PSR sort gate)” value does the source give for “QVQLVESGGGLVQAGGSLRLSCAASGFILPNYTMGWYRQAPGKERELVAAISRGGSTNYADSVKGRFTISRDNAKNTVYLQMNSLKPEDTAVYYCAVDAWTGESYWEHYYWGQGTQVTVSS” here?
**A.** low polyreactivity

**Q.** For “QVQLVESGGGLVQAGGSLRLSCAASGFILQTYAMGWYRQAPGKERELVAAITSGARTYYADSVKGRFTISRDNAKNTVYLQMNSLKPEDTAVYYCAASIWLYRYYYWGQGTQVTVSS”, which “polyreactivity (PSR sort gate)” value is on record?
**A.** high polyreactivity

**Q.** Which “polyreactivity (PSR sort gate)” value does the source give for “QVQLVESGGGLVQAGGSLRLSCAASGFILRAYAMGWYRQAPGKEREFVAAITRRGGSTYYADSVKGRFTISRDNAKNTVYLQMNSLKPEDTAVYYCAAKFFSSPHNLGYWGQGTQVTVSS” here?
**A.** high polyreactivity

**Q.** For “QVQLVESGGGLVQAGGSLRLSCAASGFILRAYAMGWYRQAPGKERELVAAITSATSTNYADSVKGRFTISRDNAKNTVYLQMNSLKPEDTAVYYCAADGGGGEFSYDSWGQGTQVTVSS”, which “polyreactivity (PSR sort gate)” value is on record?
**A.** low polyreactivity

**Q.** For “QVQLVESGGGLVQAGGSLRLSCAASGFILRIYTMGWYRQAPGKERELVAAINWSGGRTYYADSVKGRFTISRDNAKNTVYLHMNSLKPEDTAVYYCAAVYGVSVSKYYYWGQGTQVTVSS”, which “polyreactivity (PSR sort gate)” value is on record?
**A.** high polyreactivity

**Q.** Which “polyreactivity (PSR sort gate)” value does the source give for “QVQLVESGGGLVQAGGSLRLSCAASGFILRRYTMGWYRQAPGKEREFVAGISWRGGSTYYADSVKGRFTISRDNAKNTVYLQMNSLKPEDTAVYYCAAETYQLTWVLYYYWGQGTQVTVSS” here?
**A.** high polyreactivity

**Q.** For “QVQLVESGGGLVQAGGSLRLSCAASGFILRTNAMGWYRQAPGKERELVAAISVSGGRTYYADSVKGRFTISRDNAKNTVYLQMNSLKPEDTAVYYCAARDSTKLLSGYTHYYWGQGTQVTVSS”, which “polyreactivity (PSR sort gate)” value is on record?
**A.** high polyreactivity

**Q.** With “QVQLVESGGGLVQAGGSLRLSCAASGFILRYYAMGWYRQAPGKERELVAAITRGGSTYDADSVKGRFTISRDNAKNTVYLQMNSLKPEDTAVYYFDRRVGYKFSYDYWGQGTQVTVSS” as the sequence, how does the “polyreactivity (PSR sort gate)” value read?
**A.** high polyreactivity

**Q.** Which “polyreactivity (PSR sort gate)” value does the source give for “QVQLVESGGGLVQAGGSLRLSCAASGFILYGNAMGLYRQAPGKERELVAAISRRGGSTYYADSVKGRFTISRDNAKNTVYLQMNSLKPEDTAVYYCAKDGPGGGTRIYEYWGQGTLVTVSS” here?
**A.** high polyreactivity

**Q.** Which “polyreactivity (PSR sort gate)” value does the source give for “QVQLVESGGGLVQAGGSLRLSCAASGFILYRYAMGWYRQAPGKERELVAAISSGGRTYYADSVKGRFTISRDNAKNTVYLQMNSLKPEDTAVYYCNAAYKNSPYDYWGQGTQVTVSS” here?
**A.** high polyreactivity

**Q.** Which “polyreactivity (PSR sort gate)” value does the source give for “QVQLVESGGGLVQAGGSLRLSCAASGFILYSYAMGWYRQAPGKERELVAAINSTGSTYYADSVKGRFTISRDNAKNTVYLQMNSLKPEDTAVYYCATDPWYQTDHSYDTPYYYWGQGTQVTVSS” here?
**A.** low polyreactivity

**Q.** For “QVQLVESGGGLVQAGGSLRLSCAASGFILYTYAMGWYRQAPGKERELVADIDSGDGTYYADSVKGRFTISRDNAKNTVYLQMNSLKPEDTAVYYCAAQVVTWSYVYDVPGYYRYDYWGQGTQVTVSS”, which “polyreactivity (PSR sort gate)” value is on record?
**A.** low polyreactivity
